According to article PMC12540871:

Target: CVB3 3D (Coxsackievirus B3, UniProt P03313 1724-2185)
Assay: ITC

Chain of CVB3 3D (P03313 1724-2185): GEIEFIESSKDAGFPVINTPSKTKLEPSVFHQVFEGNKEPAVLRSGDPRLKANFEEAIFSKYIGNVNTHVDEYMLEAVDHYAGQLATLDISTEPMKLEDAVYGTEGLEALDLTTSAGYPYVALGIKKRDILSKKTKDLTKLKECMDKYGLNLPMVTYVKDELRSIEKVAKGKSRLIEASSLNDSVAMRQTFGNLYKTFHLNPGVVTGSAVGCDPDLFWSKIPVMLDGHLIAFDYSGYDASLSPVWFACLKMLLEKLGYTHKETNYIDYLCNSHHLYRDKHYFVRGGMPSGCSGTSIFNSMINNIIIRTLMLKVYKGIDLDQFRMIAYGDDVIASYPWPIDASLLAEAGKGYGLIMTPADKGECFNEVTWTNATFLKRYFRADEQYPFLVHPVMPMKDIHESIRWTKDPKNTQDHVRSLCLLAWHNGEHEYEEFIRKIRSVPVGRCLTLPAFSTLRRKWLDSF

B1: CVB3 CL WT (structured_RNA)
RNA: GGUAAAACAGCCUGUGGGUUGAUCCCACCCACAGGGCCCAUUGGGCGCUAGCACUCUGGUAUCACGGUACCUUUGUGCGCCUGUUUUACC
B1: no binding.
